Test results reported in the DeepSol protein solubility set.

Test: soluble on expression in E. coli; label from the status in PepcDB or PDB records

Sequence	soluble on expression in E. coli
MEKIWLDSYEKGVSAEIDITQYNSVSDVFRQSVEKFADQPAFQNMGKTLTYAETGKLATDFASYLQNVLKLPRGERVAIMLPNVLQYPVALFGILQAGLVAVNTNPLYTPRELEHQLKDSGATAIIVLENFANTLELVLPRTQIKHVIVASVGEMFGLLKGSLINFVIRKIKKMVPEYRIRETVSFQTALKEGAKHVFQPVALNREDTALLQYTGGTTGVAKGAVLSHGNICANMLQAKEWIKNQLREGKETVIAALPLYHIFALTVNLMIFANAGSKIILITNPRDMKGFIGELKKQRVNVFIGVNTLFNAMVNRPDFAEVDFSELRLTLGGGMATQKAVAEKWKKITGTPIVEAYGLTEASPGVCCNPLNIESYSGSIGLPVSSTEVELRDANGKEVPVGQPGELWVKGPQVMQGYWNRPEETAKAIDARGFLETGDIAVMDEKGWLKLVDRKKDLVVVSGFNVYPNEIEEVIAHHGKVMEVACIGVPDEKTGEALKVFVVKKDPSLTKEELIAFCRTELTAYKVPKNIEFRDELPKSNVGKILRRELRQSTGK	not soluble
MTIAIVIGTHGWAAEQLLKTAEMLLGEQENVGWIDFVPGENAETLIEKYNAQLAKLDTTKGVLFLVDTWGGSPFNAASRIVVDKEHYEVIAGVNIPMLVETLMARDDDPSFDELVALAVETGREGVKALKAKPFAG	soluble
GMVPMTRFDSATEVVRVGENRYAVELDPGYLIGTAMNGGYLMTVLQRSALAESDHLHAVSSSYHFHRPASSGPAEIETRVLKRGRTVTTVQTTLFQEGRTILTGTLATATLDPHAEPRYAAPQPAIPPQHQCRRVDPRQSHLPDDGFLARVDVDFSPDSYAALARERTVTTPELCGYVDLSARDGGSAKDPLAFLPLAVDALPPIVSLLVDWSWAPTVELTWHLRAIPEPGPLAFRSTCALVSDGWFDENVDLWDARGRLVAQSRQLARVGR	soluble
MDIMQGPSESFVDFANRLIKAVEGSDLPPSARAPVIIDCFRQKSQPDIQQLIRTAPSTLTTPGEIIKYVLDRQKTAPLTDQGIAAAMSSAIQPLIM	soluble
MEREKLELPENGKKLLLHSCCAPCSGEVMEAIVASGIDFSIFFYNPNIHPRKEYDLRKDENIRFAEKHGIPFIDADYDMDDWFKRAKGMEMEPERGIRCTMCFDMRFERTALYAYENGFDVISSSLGISRWKNMDQINDSGVRAAAQYPGITYWTYNWRKKGGSARMLEISKREKFYMQEYCGCAYSLRDTNKWRVEHGREKIRIGEKYYGDVTE	not soluble
SNAMKQLSGLLGELRQKLCAGFPEQAGIQQLIFPAPGLVGRQLLEWLTAQTHFPQFYWRHRDNHEEAAVCGQTRSFADMKDADDFIQQNPDANGLRIWGLNAFEPVMVFGQLTDNGLVSGKNAQASFLFLPRLEILRRGKKTSLTLNLSSETSLQKDALQAITFIDQLMAARALPVLNARIQHSSHTPGYPQWRNLIQQALNDIEQQKLDKVVLARTTTLTLNKPLSCAAFMAASRQVNHRCYHFMLRFDDRQAFLGSSPERLYLRQQLHLETEALAGTVSNLDSDPQAAVLADWLMHDEKNQRENLLVVDDICQRLQGGVTAVDVMPPEIIRLRKVQHLRRRICAQLSRASDTDCLQRLQPTAAVAGLPREAARQFIAKHELFSRGWYAGSAGYLSLKRTEFSVALRSARVDGQQIHLYAGAGIVAGSDAEQEWQEIDNKSAGLQSLLEHEAQPVKA	soluble
ITLKYNYTVTLKDDGLYDGVFYDHYNDQLVTKISYNHETRHGNVNFRADWFNISRSPHTPGNDYNFNFWYSLMKETLEEINKNDSTKTTSLSLITGCYETGLLFGSYGYVETANGPLARYHTGDKRFTKMTHKGFPKVGMLTVKNTLWKDVKAYLGGFEYMGCSLAILDYQKMAKGKIPKDTTPTVKVTGNELEDGNMTLECTVNSFYPPDVITKWIESEHFKGEYKYVNGRYYPEWGRKSNYEPGEPGFPWNIKKDKDANTYSLTDLVRTTSKMSSQPVCVVFHDTLEAQVYTCSEGCNGELYDHLYRKTEEGEGGSHHHHHH	soluble
GPGSMVVKDISLADWGRKELDIAETEMPGLMAAREEFGKSQPLKGARISGSLHMTIQTAVLIETLKVLGAEVRWASCNIFSTQDHAAAAIAATGTPVFAVKGETLEEYWTYTDQIFQWPDGEPSNMILDDGGDATMYILIGARAEAGEDVLSNPQSEEEEVLFAQIKKRMAATPGFFTKQRAAIKGVTEETTTGVNRLYQLQKKGLLPFPAINVNDSVTKSKFDNKYGCKESLVDGIRRGTDVMMAGKVAVVCGYGDVGKGSAQSLAGAGARVKVTEVDPICALQAAMDGFEVVTLDDAASTADIVVTTTGNKDVITIDHMRKMKDMCIVGNIGHFDNEIQVAALRNLKWTNVKPQVDLIEFPDGKRLILLSEGRLLNLGNATGHPSFVMSASFTNQVLGQIELFTRTDAYKNEVYVLPKHLDEKVARLHLDKLGAKLTVLSEEQAAYIGVTPQGPFKSEHYRY	soluble
MAHHHHHHMRTHKTHAYIQAHCLCDFYLTYCAGWVGAIKADGSGQPREPSNGVFGCVRDYIFHQMLDAVHGSSKVFFCDAHAAAVLNCSLRLHDLMERGVTLLEDLMAPRQPIMSSFTPYFFAVEDACVSCVVEDWMAKVPYRDVHIFALGCAPHRSPQQLPRSRIAPRVMRFKEMMLDFTATEALVFHPNMQNGLPQLLSPLSPPT	not soluble
MGSDKIHHHHHHMIFYCALSIGRVFSATIKTCPNVHQVHHVVLTIEMSINMQNNEQTEYKTVRGLTRGLMLLNMLNKLDGGASVGLLAELSGLHRTTVRRLLETLQEEGYVRRSPSDDSFRLTIKVRQLSEGFRDEQWISALAAPLLGDLLREVVWPTDVSTLDVDAMVVRETTHRFSRLSFHRAMVGRRLPLLKTASGLTWLAFCPEQDRKELIEMLASRPGDDYQLAREPLKLEAILARARKEGYGQNYRGWDQEEKIASIAVPLRSEQRVIGCLNLVYMASAMTIEQAAEKHLPALQRVAKQIEEGVESQAILVAGRRSGMHLR	not soluble
MGSDKIHHHHHHMEESKELFKDIEKHLLNDVRPSEYLNEQLNKGNLNKYPFTMLSDLVHTEQNKEHHPEGNVWNHTLLVVDKAAENREKSSDKRAFMWGSLLHDIGKAKTTKVRKGKITSYNHDKVGETMSREFLQCFSEDEDFIYKVIKLVRWHMQTLFVVKNMSFADSKNMLKETSLDEIALLSLCDRLGRQPMSNGKIQEEKENVRTFVRKVKELNKV	not soluble
HHHHHHGHMRTNKDRLVRISVVGEIAPAKMRSPYSVTTEGTVRVIPVLGGITYNVKVGDSAYGWAGDHVEPGVSVMARRKEEEIPLMTLSCIGNEVIVMSGDAKGSRGFVTGKHGGVNHVLVHFEEEVLGKLMVGDKILIKAWGQGLKLLDHPDVKVMNIDPDLFEKLGIQEKNGKIHVPVVAKIPAHMMGSGIGASSSASTDYDIMASNPEDLGVADLKLGDIVAIQDHDNSYGVGKYRKGAVSIGVVVHSACVSAGHGPGVVVIMTGDESKILPEEVERANISDYLVR	soluble
MPTVSLGRFQKEDGINVPDWIDVVRRPSGGRALLHHREITYCLAVPKKINFGKLSVLEFHRLVHSLIRDALVEAGLHAELSSKRRGNTALCFDAPSRYEIVINGVKVVGSAQFRTAESIVEHGSIVLKQDIDL	soluble
MYTIAALYHFTRFADPADLKPALLDLCLAQGVKGTLLLAKEGINGTIAGPRAGIDAVLAHIRALPGCSDLEWKEATSDHPPFGKMKVRLKQEIVTMGQPDVDPRARVGHYVEPEDWNDLIRSDDVVLIDTRNDYEVAIGTFEGAIDPMTESFRDFPAWWEANKERFHNKRVAMFCTGGIRCEKSTNYLLGQGVEDVYHLKGGILRYLEEVPAENSTWQGECFVFDNRVSVGHGLVEGPHELCHGCRRPILPEDRNRPEYEHGVSCHLCIDETSEADKMRFRERQKQIALARARGEDHLATH	not soluble
MSLIKMIALDLDETLLNTDKTISEENATALRQLHEAGIKIVLCTGRPINAIWHYLEQLGLTTDDDYTITFNGALVIQNSTKEALAQSGLSRNDFEPLHAFAAANHYPMDVLDFDQVYPIADLTPSVYEQMLKAPMKFIPTAFADLPDQLFSKAVMATDAAILDQVVAKLTPELTKLYHVVRSQPKILEFLAADMDKAVGLGQLLTHFGWDFSDLMAFGDAENDLGMIKAAGDGVAMQNGQPAVKAAANHQTPVDNNHAGVAAYLQHVFPELLGEGHHHHHH	soluble
SRRLLNDSTGRIYQRVGKEGEKLKEEPQDLDLVWPPRLNSSAEAPQSLHPSSRGVWNELPPQSGQFSGQYGTRSRTFQSQPHPTTSSNGMVVNKHSEGSHGGELPVVNSSAGSNCCTCNCQSTLQAILQELKTMRKLMQIQAVGTQNRQQPPISLICSQRTAVSRKRNKKKKVPPKTVEPLTVKQKPSGSEMEKKSVVASELSALQAAEHTSPEESRVLGFGIVLESPSSDPEVQLAEGFDVFMPKSQLDSILSNYTRSGSLLFRKLVCAFFDDKTLANSLPNGKRKRGLNDNRKGLDQNIVGAIKVFTEKYCTANHVDKLPGPRDWVQILQDQIKLARRRLKRGSEIADSDERLDGIALPPTVV	not soluble
SMEDPDQLYTTLKNLLAQIKSHPSAWPFMEPVKKSEAPDYYEVIRFPIDLKTMTERLRSRYYVTRKLFVADLQRVIANCREYNPPDSEYCRCASALEKFFYFKLKEGGLIDK	soluble
MGSDKIHHHHHHMFNAQYFRTFITLVETGSFTHTARKLEMTQPGVSQHIRKLERYLDKSLLYRHGRRFTLTETGRRAYDYAVKLFAEHEQFRHSLDNDSPDTGECRVASPSSVGLMFYPFILGYQQMHPGLTVTYDFAFNAEIVDAVLAGRFDVGIVTDVTKHPDLDFEPWHQEPLCLLVPADFTGTTISELMALGFMNYSDGINNASSLLRRNFAGEFRSMSHFPQQGFSNEVSMVLDAVARGLGFTVVPRSVMETSPWQRQVKELPLAESVYETLYVVTKRGVEMPRRYQQLLGEFRLQRRNVLYGYAEAPPLEDEA	not soluble
GPGSMVHRQDGAVVHCSRETGRLSAIIAPSILASDFAQLLSECQSVLSPEGGAADWLHVDVMDGHFVPNISIGMCVVQSLRSHLQDVFLDVHCMVSDPDRWVEEMAKAGATQMTFHVEAVADPKAVARHIRAAGMLCGVALKPKTPVSSVLNLVEEQLIDMVLVMTVEPGFGGQSFMQDMMPKVEELRARFPCLNIQVDGGIGPGTIDAPARAGANVIVAGTSIFRADSRKEATESMRRVVQGYLGSTTS	soluble
RLKNPKIKQGGEWMDVDWKTALEYVRSAIECIAKDGNQNQVGVWANPMNTVEELYLAKKFADGLGVKNFATRLRQQDKRLSDGLKGAQWLGQSIESLADNDAVLVVGANLRKEQPLLTARLRRAAKDRMALSVLAGSKEELFMPLLSQEAAHPDEWAGRLKNLSADAEHAVTASLKNAEKAAVILGAEVQNHPDYAAIYAAAQELADATGAVLGILPQAANSVGADVLGVNSGESVAEMANTPKQAVLLLNVEPEIDTVDGAKAVAALKQAKSVMAFTPFVSETLLDVCDVLLPIAPFTETSGSFINMEGRLQSFHGVVQGFGDSRPMWKVLRVLGNLFDLKGFEYHDTAAILKDALD	not soluble
MGHHHHHHSHVGFDTGFMQFFRVREKSMTMAELLIGSRKTYGLNLIGGVRRDILKEQRLQTLKLVREMRADVSELVEMLLATPNMEQRTQGIGILDRQIARDLRFDHPYADYGNIPKTLFTFTGGDVFSRVMVRVKETFDSLAMLEFALDNMPDTPLLTEGFSYKPHAFALGFVEAPRGEDVHWSMLGDNQKLFRWRCRAATYANWPVLRYMLRGNTVSDAPLIIGSLDPCYSCTDR	not soluble
MSLNTEIEMNELLEKAKKIKCLICDVDGVLSDGLLHIDNHGNELKSFHVQDGMGLKLLMAAGIQVAIITTAQNAVVDHRMEQLGITHYYKGQVDKRSAYQHLKKTLGLNDDEFAYIGDDLPDLPLIQQVGLGVAVSNAVPQVLEFADWRTERTGGRGAVRELCDLILNAQNKAELAITGYLKQEGHHHHHH	soluble
